Results: the supplement of paper PMC10567573

B1: PPP2R2B (parent)
chain: RNTKRDVTLEASRENSKPRAILKP
B2: GNB5 (parent)
chain: DINSVRYYPSGDAFASGSDDATCR

Variants of: B1
Assay: protein stability index of a GFP-peptide fusion (GPS, HEK-293T) (PSI 1-6); higher = more stable
Conditions: c terminus: a fixed tail appended
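Further: lentivirally expressed fusions sorted by FACS into six bins by GFP to DsRed ratio, PSI derived from sequencing read proportions per bin multiplied by bin number.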

Protein stability index, by site and new letter:
A20: S 4.48 | C 4.17 | Y 4.1 | K 5.04 | Q 4.44 | T 4.49 | R 4.66 | F 4.03 | M 4.65 | G 4.39 | V 4.38 | I 4.32 | P 4.3 | N 4.64 | H 4.85 | D 4.64 | L 4.19 | W 3.3 | E 5
K17: Q 4.81 | W 4.3 | D 4.57 | P 5.27 | H 4.47 | I 4.33 | G 4.89 | Y 4.14 | L 4.56 | A 4.66 | S 4.04 | N 4.5 | T 4.71 | F 4.37 | E 5.13 | C 4.18 | R 4.38 | M 4.69 | V 4.66
K23: Q 4.89 | A 4.5 | N 4.18 | F 3.48 | Y 4.38 | P 4.5 | I 4.04 | L 3.91 | V 4.31 | T 4.67 | W 4.33 | E 4.5 | C 4.25 | D 4.79 | R 4.04 | H 4.57 | S 4.56 | M 3.94 | G 4.48
R19: H 4.46 | D 4.86 | G 4.86 | Y 4.21 | K 4.7 | L 4.7 | A 4.2 | F 4.12 | I 4.39 | M 4.44 | E 5.04 | Q 4.75 | T 4.52 | P 4.79 | C 4.69 | S 4.41 | W 3.98 | V 4.72 | N 4.7
L22: H 4.8 | S 4.9 | A 4.99 | F 4.5 | P 4.28 | M 4.33 | Y 4.37 | D 5.09 | G 4.69 | I 4.2 | R 4.75 | W 3.98 | E 5.31 | V 4.72 | T 4.49 | C 4.47 | K 5.11 | Q 4.92 | N 4.79
P24: N 4.82 | W 3.55 | D 3.69 | F 3.56 | K 4.26 | T 4.88 | H 4.41 | R 4.13 | S 4.49 | G 4.65 | Y 3.58 | Q 4.47 | L 4 | V 4 | C 4.44 | I 3.32 | A 4.74 | E 4.74 | M 4.06
S16: Y 4.17 | V 4.24 | W 3.37
P18: M 4.58 | I 4.27 | C 4.25 | E 5 | V 4.32 | R 4.79 | Y 3.62 | L 4.27 | Q 4.76 | N 4.55 | A 4.52 | D 5.07 | T 4.54 | G 4.86 | W 3.87 | S 4.72 | H 4.11 | K 4.73 | F 3.79
I21: K 4.83 | H 4.52 | V 4.6 | A 4.8 | D 5.3 | E 5.34 | P 5.15 | S 4.78 | T 4.5 | N 4.68 | W 4.7 | L 4.68 | M 4.67 | R 5.35 | G 4.99 | C 4.85 | Q 4.8 | Y 4.5 | F 4.3

Variants of: B2
Assay: as above
Conditions: c terminus: a fixed tail appended

Protein stability index: each site, then its substitutions
Y8: K 3.79 | Q 4.77 | A 4.49 | H 3.78 | C 4.43 | W 4.24 | G 4.43 | N 4.34 | R 4.65 | I 4.5 | P 4.63 | M 4.55 | T 4.45 | S 3.94 | F 3.82 | D 4.87 | V 4.55 | E 4.8 | L 4.39
S10: G 4.35 | A 3.76 | I 3.76 | C 3.49 | E 4.63 | F 3.3 | D 4.32 | H 3.65
N3: S 4.07 | G 4.53 | E 4.52 | V 3.56 | D 5.08 | T 3.77 | Y 3.68 | W 3.74 | I 3.57 | C 3.87 | K 4.04 | P 4.64 | A 4.66 | M 3.42 | R 4.55 | H 4.43 | Q 4.31 | F 3.76 | L 3.35
S4: G 3.6 | Q 3.83 | T 4.23 | F 3.48 | L 3.42 | I 3.55 | P 4.32 | V 2.55 | N 3.55 | K 4.08 | D 4.53 | H 4.07 | M 4.21 | W 3.22 | E 4.29 | C 3.44 | R 3.81 | A 3.95 | Y 3.75
Y7: N 4.26 | K 4.35 | C 3.87 | T 4.64 | D 4.77 | R 4.2 | M 4.12 | P 4.46 | A 4.5 | F 3.87 | L 3.61 | Q 4.21 | S 4.69 | H 4.38 | G 4.39 | E 5.19 | I 3.76 | W 3.11 | V 4.51
V5: T 4.28 | D 4.41 | S 4.26 | F 3.74 | A 4.38 | L 3.49 | K 3.91 | P 4.51 | N 3.46 | R 3.73 | W 3.88 | H 3.91 | G 3.77 | M 3.92 | E 4.61 | C 3.81 | Q 3.85 | I 4.19 | Y 3.6
D1: K 3.85 | S 4.74 | L 3.73 | A 4.18 | W 2.68 | F 2.54 | T 3.95 | R 4.04 | Q 4.23 | Y 2.5 | H 3.48 | V 3.58 | E 4.1 | C 3.44 | M 3.81 | N 4.37 | I 3.48 | P 3.33 | G 4.36
I2: T 4.49 | W 3.99 | F 3.98 | L 3.82 | G 4.54 | P 4.92 | S 4.6 | C 4.32 | D 5.39 | R 4.36 | E 4.87 | V 3.93 | N 4.92 | A 4.41 | K 4.68 | Q 4.72 | Y 4.32 | H 4.51 | M 4.1
P9: F 2.74 | T 4.02 | D 4.43 | N 3.82 | W 3.23 | L 3.26 | E 4.16 | R 3.69 | A 3.59 | M 3.3 | V 3.62 | Y 3.35 | S 4.17 | C 3.17 | K 3.62 | Q 3.8 | I 2.7 | H 3.52 | G 4.13
R6: S 4.41 | N 4.31 | H 4.26 | W 3.33 | T 4.82 | I 3.88 | V 3.91 | L 3.56 | A 4.44 | E 5.13 | G 4.3 | F 3.57 | Y 3.62 | C 3.9 | D 4.58 | K 4.34 | Q 4.64 | M 4.04 | P 4.29
